Assay results: the supplement of paper PMC10567573

B1: WDFY1 (parent)
chain: LLIPKEDGVITASEDRTIRVWLKR

Variants of: B1
Experiment: protein stability index of a GFP-peptide fusion (GPS, HEK-293T) (PSI 1-6); higher = more stable
Conditions: c terminus: a fixed tail appended
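Note: lentivirally expressed fusions sorted by FACS into six bins by GFP to DsRed ratio, PSI derived from sequencing read proportions per bin multiplied by bin number.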

| Variant | protein stability index |
| --- | --- |
| LLIPKEDFVITASEDRTIRVWLKR | 1.48 |
| LLIPKEDSVITASEDRTIRVWLKR | 1.95 |
| LLIPKEDYVITASEDRTIRVWLKR | 1.74 |
| LLIPKEDLVITASEDRTIRVWLKR | 1.03 |
| LLIPKEDCVITASEDRTIRVWLKR | 2.23 |
| LLIPKEDRVITASEDRTIRVWLKR | 2.3 |
| LLIPKEDTVITASEDRTIRVWLKR | 2.55 |
| LLIPKEDKVITASEDRTIRVWLKR | 1.99 |
| LLIPKEDMVITASEDRTIRVWLKR | 1.14 |
| LLIPKEDWVITASEDRTIRVWLKR | 1.94 |
| LLIPKEDHVITASEDRTIRVWLKR | 1.78 |
| LLIPKEDDVITASEDRTIRVWLKR | 2.27 |
| LLIPKEDIVITASEDRTIRVWLKR | 1.41 |
| LLIPKEDVVITASEDRTIRVWLKR | 1.58 |
| LLIPKEDEVITASEDRTIRVWLKR | 1.31 |
| LLIPKEDPVITASEDRTIRVWLKR | 2.41 |
| LLIPKEDQVITASEDRTIRVWLKR | 1.58 |
| LLIPKEDNVITASEDRTIRVWLKR | 2.07 |
| LLIPKEDGVITASEDETIRVWLKR | 2.81 |
| LLIPKEDGVITASEDATIRVWLKR | 1.92 |
| LLIPKEDGVITASEDDTIRVWLKR | 2.6 |
| LLIPKEDGVITASEDPTIRVWLKR | 2.37 |
| LLIPKEDGVITASEDKTIRVWLKR | 1.74 |
| LLIPKEDGVITASEDTTIRVWLKR | 1.65 |

| Variant | protein stability index |
| --- | --- |
| LLIPKEDGVITASEDYTIRVWLKR | 1.41 |
| LLIPKEDGVITASEDSTIRVWLKR | 1.7 |
| LLIPKEDGVITASEDQTIRVWLKR | 2.2 |
| LLIPKEDGVITASEDHTIRVWLKR | 1.6 |
| LLIPKEDGVITASEDLTIRVWLKR | 2.22 |
| LLIPKEDGVITASEDCTIRVWLKR | 1.6 |
| LLIPKEDGVITASEDNTIRVWLKR | 3.22 |
| LLIPKEDGVITASEDMTIRVWLKR | 2.19 |
| LLIPKEDGVITASEDGTIRVWLKR | 1.89 |
| LLIPKEDGVITASEDVTIRVWLKR | 1.95 |
| LLIPKEDGVITASEDITIRVWLKR | 1.43 |
| LLIPKEDGVITAIEDRTIRVWLKR | 2.57 |
| LLIPKEDGVITAAEDRTIRVWLKR | 1.56 |
| LLIPKEDGVITAEEDRTIRVWLKR | 1.5 |
| LLIPKEDGVITAQEDRTIRVWLKR | 3.07 |
| LLIPKEDGVITAVEDRTIRVWLKR | 2.32 |
| LLIPKEDGVITALEDRTIRVWLKR | 2.15 |
| LLIPKEDGVITADEDRTIRVWLKR | 2.53 |
| LLIPKEDGVITAGEDRTIRVWLKR | 2.42 |
| LLIPKEDGVITAHEDRTIRVWLKR | 1.91 |
| LLIPKEDGVITAMEDRTIRVWLKR | 1.45 |
| LLIPKEDGVITACEDRTIRVWLKR | 1.51 |
| LLIPKEDGVITAKEDRTIRVWLKR | 2.06 |
| LLIPKEDGVITATEDRTIRVWLKR | 2.2 |

| Variant | protein stability index |
| --- | --- |
| LLIPKEDGVITAPEDRTIRVWLKR | 1.66 |
| LLIPKEDGVITAYEDRTIRVWLKR | 2.08 |
| LLIPKEDGVITANEDRTIRVWLKR | 1.99 |
| LLIPKEDGVITASEDRAIRVWLKR | 2.74 |
| LLIPKEDGVITASEDRCIRVWLKR | 2.1 |
| LLIPKEDGVITASEDRDIRVWLKR | 1.94 |
| LLIPKEDGCITASEDRTIRVWLKR | 1.65 |
| LLIPKEDGIITASEDRTIRVWLKR | 2.77 |
| LLIPKEDGNITASEDRTIRVWLKR | 2.44 |
| LLIPKEDGTITASEDRTIRVWLKR | 2.14 |
| LLIPKEDGQITASEDRTIRVWLKR | 2.56 |
| LLIPKEDGKITASEDRTIRVWLKR | 1.69 |
| LLIPKEDGWITASEDRTIRVWLKR | 2.22 |
| LLIPKEDGHITASEDRTIRVWLKR | 2.48 |
| LLIPKEDGRITASEDRTIRVWLKR | 2.33 |
| LLIPKEDGMITASEDRTIRVWLKR | 2.21 |
| LLIPKEDGFITASEDRTIRVWLKR | 1.81 |
| LLIPKEDGSITASEDRTIRVWLKR | 2.74 |
| LLIPKEDGPITASEDRTIRVWLKR | 3.22 |
| LLIPKEDGAITASEDRTIRVWLKR | 2.58 |
| LLIPKEDGYITASEDRTIRVWLKR | 1.02 |
| LLIPKEDGGITASEDRTIRVWLKR | 2.4 |
| LLIPKEDGEITASEDRTIRVWLKR | 2.6 |
| LLIPKEDGVITASKDRTIRVWLKR | 1.93 |

| Variant | protein stability index |
| --- | --- |
| LLIPKEDGVITASYDRTIRVWLKR | 1.32 |
| LLIPKEDGVITASMDRTIRVWLKR | 2.62 |
| LLIPKEDGVITASQDRTIRVWLKR | 2.14 |
| LLIPKEDGVITASFDRTIRVWLKR | 2.37 |
| LLIPKEDGVITASADRTIRVWLKR | 1.71 |
| LLIPKEDGVITASIDRTIRVWLKR | 2.76 |
| LLIPKEDGVITASRDRTIRVWLKR | 2.78 |
| LLIPKEDGVITASVDRTIRVWLKR | 1.9 |
| LLIPKEDGVITASCDRTIRVWLKR | 2.41 |
| LLIPKEDGVITASPDRTIRVWLKR | 2.62 |
| LLIPKEDGVITASWDRTIRVWLKR | 1 |
| LLIPKEDGVITASTDRTIRVWLKR | 1.73 |
| LLIPKEDGVITASGDRTIRVWLKR | 2.29 |
| LLIPKEDGVITASDDRTIRVWLKR | 3.39 |
| LLIPKEDGVITASEKRTIRVWLKR | 1.41 |
| LLIPKEDGVITASEERTIRVWLKR | 1.66 |
| LLIPKEDGVITASEYRTIRVWLKR | 2.97 |
| LLIPKEDGVITASEMRTIRVWLKR | 1.55 |
| LLIPKEDGVITASEGRTIRVWLKR | 2.09 |
| LLIPKEDGVITASECRTIRVWLKR | 1.1 |
| LLIPKEDGVITASEQRTIRVWLKR | 2.32 |
| LLIPKEDGVITASEPRTIRVWLKR | 2.17 |
| LLIPKEDGVITASEVRTIRVWLKR | 1.37 |
| LLIPKEDGVITASETRTIRVWLKR | 1.19 |

| Variant | protein stability index |
| --- | --- |
| LLIPKENGVITASEDRTIRVWLKR | 1.58 |
| LLIPKEVGVITASEDRTIRVWLKR | 1.8 |
| LLIPKEPGVITASEDRTIRVWLKR | 1.66 |
| LLIPKELGVITASEDRTIRVWLKR | 2.05 |
| LLIPKEEGVITASEDRTIRVWLKR | 3.03 |
| LLIPKEQGVITASEDRTIRVWLKR | 2.1 |
| LLIPKEKGVITASEDRTIRVWLKR | 1.56 |
| LLIPKEMGVITASEDRTIRVWLKR | 1.44 |
| LLIPKECGVITASEDRTIRVWLKR | 1.75 |
| LLIPKEFGVITASEDRTIRVWLKR | 2.7 |
| LLIPKEHGVITASEDRTIRVWLKR | 1.42 |
| LLIPKEYGVITASEDRTIRVWLKR | 1.3 |
| LLIPKEIGVITASEDRTIRVWLKR | 1.28 |
| LLIPKESGVITASEDRTIRVWLKR | 1.39 |
| LLIPKEWGVITASEDRTIRVWLKR | 1.33 |
| LLIPKEGGVITASEDRTIRVWLKR | 1.77 |
| LLIPKETGVITASEDRTIRVWLKR | 2.37 |
| LLIPKEAGVITASEDRTIRVWLKR | 2.06 |
| LLIPKEDGVATASEDRTIRVWLKR | 2.4 |
| LLIPKEDGVDTASEDRTIRVWLKR | 2.83 |
| LLIPKEDGVHTASEDRTIRVWLKR | 1.94 |
| LLIPKEDGVNTASEDRTIRVWLKR | 2.54 |
| LLIPKEDGVMTASEDRTIRVWLKR | 2.14 |
| LLIPKEDGVTTASEDRTIRVWLKR | 2.47 |

| Variant | protein stability index |
| --- | --- |
| LLIPKEDGVFTASEDRTIRVWLKR | 2.42 |
| LLIPKEDGVLTASEDRTIRVWLKR | 2.21 |
| LLIPKEDGVCTASEDRTIRVWLKR | 1.94 |
| LLIPKEDGVQTASEDRTIRVWLKR | 2.62 |
| LLIPKEDGVYTASEDRTIRVWLKR | 1.91 |
| LLIPKEDGVSTASEDRTIRVWLKR | 2.07 |
| LLIPKEDGVPTASEDRTIRVWLKR | 4.2 |
| LLIPKEDGVGTASEDRTIRVWLKR | 2.76 |
| LLIPKEDGVKTASEDRTIRVWLKR | 2.17 |
| LLIPKEDGVETASEDRTIRVWLKR | 2.68 |
| LLIPKEDGVRTASEDRTIRVWLKR | 2.07 |
| LLIPTEDGVITASEDRTIRVWLKR | 1.62 |
| LLIPYEDGVITASEDRTIRVWLKR | 2.91 |
| LLIPIEDGVITASEDRTIRVWLKR | 2.28 |
| LLIPREDGVITASEDRTIRVWLKR | 1.44 |
| LLIPLEDGVITASEDRTIRVWLKR | 1.36 |
| LLIPSEDGVITASEDRTIRVWLKR | 1.2 |
| LLIPQEDGVITASEDRTIRVWLKR | 1.57 |
| LLIPWEDGVITASEDRTIRVWLKR | 1.41 |
| LLIPNEDGVITASEDRTIRVWLKR | 2.15 |
| LLIPKTDGVITASEDRTIRVWLKR | 1.77 |
| LLIPKQDGVITASEDRTIRVWLKR | 3.73 |
| LLIPKKDGVITASEDRTIRVWLKR | 2.18 |
| LLIPKADGVITASEDRTIRVWLKR | 2.59 |

| Variant | protein stability index |
| --- | --- |
| LLIPKYDGVITASEDRTIRVWLKR | 2.4 |
| LLIPKSDGVITASEDRTIRVWLKR | 2.06 |
| LLIPKVDGVITASEDRTIRVWLKR | 1.42 |
| LLIPKLDGVITASEDRTIRVWLKR | 3.18 |
| LLIPKMDGVITASEDRTIRVWLKR | 2.65 |
| LLIPKGDGVITASEDRTIRVWLKR | 2.56 |
| LLIPKCDGVITASEDRTIRVWLKR | 2.67 |
| LLIPKRDGVITASEDRTIRVWLKR | 1.63 |
| LLIPKNDGVITASEDRTIRVWLKR | 2.58 |
| LLIPKIDGVITASEDRTIRVWLKR | 1.98 |
| LLIPKWDGVITASEDRTIRVWLKR | 1.66 |
| LLIPKFDGVITASEDRTIRVWLKR | 2.25 |
| LLIPKPDGVITASEDRTIRVWLKR | 2.43 |
| LLIPKDDGVITASEDRTIRVWLKR | 2.82 |
| LLIPKHDGVITASEDRTIRVWLKR | 2.67 |
| LLIPKEDGVITYSEDRTIRVWLKR | 2.66 |
| LLIPKEDGVITHSEDRTIRVWLKR | 2.08 |
| LLIPKEDGVITFSEDRTIRVWLKR | 1.91 |
| LLIPKEDGVITDSEDRTIRVWLKR | 2.39 |
| LLIPKEDGVITISEDRTIRVWLKR | 1.92 |
| LLIPKEDGVITSSEDRTIRVWLKR | 1.71 |
| LLIPKEDGVITGSEDRTIRVWLKR | 1.93 |
| LLIPKEDGVITPSEDRTIRVWLKR | 2.76 |
| LLIPKEDGVITCSEDRTIRVWLKR | 1.77 |

| Variant | protein stability index |
| --- | --- |
| LLIPKEDGVITKSEDRTIRVWLKR | 2.19 |
| LLIPKEDGVITNSEDRTIRVWLKR | 2.56 |
| LLIPKEDGVITLSEDRTIRVWLKR | 2.1 |
| LLIPKEDGVITQSEDRTIRVWLKR | 2.18 |
| LLIPKEDGVIVASEDRTIRVWLKR | 2.19 |
| LLIPKEDGVIIASEDRTIRVWLKR | 2.15 |
| LLIPKEDGVIFASEDRTIRVWLKR | 2.4 |
| LLIPKEDGVIHASEDRTIRVWLKR | 2.56 |
| LLIPKEDGVINASEDRTIRVWLKR | 1.82 |
| LLIPKEDGVISASEDRTIRVWLKR | 2.42 |
| LLIPKEDGVIAASEDRTIRVWLKR | 2.43 |
| LLIPKEDGVIKASEDRTIRVWLKR | 2.03 |
| LLIPKEDGVICASEDRTIRVWLKR | 2.7 |
| LLIPKEDGVIWASEDRTIRVWLKR | 1.72 |
| LLIPKEDGVIQASEDRTIRVWLKR | 1.72 |
| LLIPKEDGVIGASEDRTIRVWLKR | 1.98 |
| LLIPKEDGVIMASEDRTIRVWLKR | 1.5 |
| LLIPKEDGVIPASEDRTIRVWLKR | 2.65 |
| LLIPKEDGVIRASEDRTIRVWLKR | 3.1 |
| LLIPKEDGVIEASEDRTIRVWLKR | 2.26 |
